Data from PMC10484726, “Archaeal Hel308 suppresses recombination through a catalytic switch that controls DNA annealing”.

Molecular target: T1, Mth-Hel308 wild type (Methanothermobacter thermautotrophicus, UniProt O26901 1-690)
T1 sequence: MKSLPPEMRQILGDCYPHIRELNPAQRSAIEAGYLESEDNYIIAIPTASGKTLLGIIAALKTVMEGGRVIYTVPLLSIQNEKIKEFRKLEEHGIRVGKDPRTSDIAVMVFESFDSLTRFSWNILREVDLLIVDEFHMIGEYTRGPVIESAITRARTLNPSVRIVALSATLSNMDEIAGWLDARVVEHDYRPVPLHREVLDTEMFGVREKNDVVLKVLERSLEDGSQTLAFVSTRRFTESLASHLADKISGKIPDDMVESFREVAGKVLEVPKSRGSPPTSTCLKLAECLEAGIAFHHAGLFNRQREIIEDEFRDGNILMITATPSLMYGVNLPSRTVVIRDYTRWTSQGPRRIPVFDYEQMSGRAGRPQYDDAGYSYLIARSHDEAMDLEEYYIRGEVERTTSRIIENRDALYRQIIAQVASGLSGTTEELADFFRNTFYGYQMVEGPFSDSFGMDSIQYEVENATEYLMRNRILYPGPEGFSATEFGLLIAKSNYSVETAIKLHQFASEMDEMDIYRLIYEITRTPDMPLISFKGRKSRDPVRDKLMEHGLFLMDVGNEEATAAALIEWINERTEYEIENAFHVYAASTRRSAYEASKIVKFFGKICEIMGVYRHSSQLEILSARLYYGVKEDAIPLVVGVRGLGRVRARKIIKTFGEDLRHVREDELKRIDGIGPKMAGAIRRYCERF
Assay: EMSA; 5 mM EDTA; 25 nM DNA; EMSA: 20 mM Tris-HCl pH 7.5, 100 ug/ml BSA, 7% glycerol, 25 mM DTT, 5 mM EDTA, 25 nM Cy5-DNA; 5% TBE gel; no added salt stated; 37 C 10 min stated for duplex DNA reactions
Settings: protein: recombinant; tags: N-terminal His6; label: Cy5 (end label); fork

B1: forked DNA substrate (dsDNA)
DNA 1: GTCGGATCCTCTAGACAGCTCCATGATCACTGGCACTGGTAGAATTCGGC
DNA 2: CAACGTCATAGACGATTACATTGCTACATGGAGCTGTCTAGAGGATCCGA
In the case of B1, the Kd is reported as 68.2 nM.
